Source: PMC8199443

Biological target: OpuABC-SS, OpuABC subunit of the ABC transporter OpuA with a C-terminal TwinStrepII-tag (Lactococcus lactis)
Assay: SEC; affinity-purified OpuA reconstituted in MSP1D1 nanodiscs (DOPE/DOPC/DOPG; OpuA/MSP1D1/lipid 1:20:2000 or 1:20:1000), Superdex 200 Increase 10/300 GL, 50 mM KPi pH 7.0, 200 mM KCl; peak fraction on SDS-PAGE

stoichiometry N: 2
Substance: OpuABC-SS, OpuABC subunit of the ABC transporter OpuA with a C-terminal TwinStrepII-tag (natural protein)
